Test results taken from patent US20240182536A1 (MURAL ONCOLOGY, published 2024).
Residue numbers refer to the chain shown, from its start. Names and notes keep the numbering of the source. Read-outs that look alike come from different tables or passages of the source.

Experiments:
[1] = target: T1, interleukin 18 binding protein (IL-18BP) (UniProt O95998 31-194); experiment: cell-based or functional assay
T1 sequence (looked up): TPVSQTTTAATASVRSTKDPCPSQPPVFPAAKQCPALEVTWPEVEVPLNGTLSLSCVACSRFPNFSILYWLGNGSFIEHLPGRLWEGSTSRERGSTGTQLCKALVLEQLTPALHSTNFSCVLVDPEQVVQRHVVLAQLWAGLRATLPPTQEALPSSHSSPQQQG

[2] = target: T2, IL-18 receptors on HEK-Blue IL-18 reporter cells (UniProt Q13478 19-541; O95256 20-599, limits assumed); experiment: cell-based or functional assay
T2 sequence (looked up) 1: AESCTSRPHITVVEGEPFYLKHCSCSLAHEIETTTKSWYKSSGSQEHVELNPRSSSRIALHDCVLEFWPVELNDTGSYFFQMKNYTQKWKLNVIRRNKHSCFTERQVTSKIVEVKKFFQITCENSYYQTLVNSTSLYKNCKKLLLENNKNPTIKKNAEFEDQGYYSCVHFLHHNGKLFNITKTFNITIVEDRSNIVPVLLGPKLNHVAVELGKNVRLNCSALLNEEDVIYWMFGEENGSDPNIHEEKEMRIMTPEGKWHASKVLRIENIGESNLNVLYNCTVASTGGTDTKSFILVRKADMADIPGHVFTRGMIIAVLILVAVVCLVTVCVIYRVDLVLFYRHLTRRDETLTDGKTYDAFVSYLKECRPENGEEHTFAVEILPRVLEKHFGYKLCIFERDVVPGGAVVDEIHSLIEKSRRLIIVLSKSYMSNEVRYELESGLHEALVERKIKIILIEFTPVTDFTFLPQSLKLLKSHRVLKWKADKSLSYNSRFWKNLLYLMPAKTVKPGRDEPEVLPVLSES
T2 sequence (looked up) 2: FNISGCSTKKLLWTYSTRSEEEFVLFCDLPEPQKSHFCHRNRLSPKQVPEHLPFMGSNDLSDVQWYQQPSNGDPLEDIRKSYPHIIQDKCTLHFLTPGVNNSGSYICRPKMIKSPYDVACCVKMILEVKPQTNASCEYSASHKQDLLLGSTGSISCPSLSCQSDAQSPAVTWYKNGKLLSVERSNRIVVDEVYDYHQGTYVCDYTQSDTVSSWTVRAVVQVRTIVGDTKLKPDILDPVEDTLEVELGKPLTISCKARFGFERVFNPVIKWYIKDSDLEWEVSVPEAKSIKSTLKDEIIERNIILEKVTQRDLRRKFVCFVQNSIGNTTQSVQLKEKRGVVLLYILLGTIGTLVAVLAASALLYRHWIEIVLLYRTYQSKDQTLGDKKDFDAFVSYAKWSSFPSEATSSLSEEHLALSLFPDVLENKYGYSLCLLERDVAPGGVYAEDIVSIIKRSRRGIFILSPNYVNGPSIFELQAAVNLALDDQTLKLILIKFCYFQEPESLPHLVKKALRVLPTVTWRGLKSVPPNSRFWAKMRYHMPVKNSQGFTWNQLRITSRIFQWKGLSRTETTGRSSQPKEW

[3] = target: T3, interleukin 18 binding protein (IL-18BP) (UniProt O95998 31-194); experiment: cell-based or functional assay; remark: listed apart in the source
T3 sequence (looked up): T1 sequence (looked up)

[4] = target: T4, human IL-18 binding protein (IL-18BP) (human, UniProt O95998 31-194); experiment: cell-based or functional assay
T4 sequence (looked up): T1 sequence (looked up)

[5] = target: T5, IL-18 receptors on HEK-Blue IL-18 reporter cells (InvivoGen) (UniProt Q13478 19-541; O95256 20-599); experiment: cell-based or functional assay
T5 sequence (looked up) 1: T2 sequence (looked up) 1
T5 sequence (looked up) 2: T2 sequence (looked up) 2

[6] = target: T4, human IL-18 binding protein (IL-18BP); experiment: cell-based or functional assay; remark: listed apart in the source
[7] = target: T5, IL-18 receptors on HEK-Blue IL-18 …; experiment: cell-based or functional assay; remark: listed apart in the source
[8] = target: T6, human IL-18 receptor alpha (IL-18Rα) (human, UniProt Q13478 19-329, limits assumed); experiment: Octet BLI
T6 construct: also called hu IL-18Ra; IL-18R alpha
T6 sequence (looked up): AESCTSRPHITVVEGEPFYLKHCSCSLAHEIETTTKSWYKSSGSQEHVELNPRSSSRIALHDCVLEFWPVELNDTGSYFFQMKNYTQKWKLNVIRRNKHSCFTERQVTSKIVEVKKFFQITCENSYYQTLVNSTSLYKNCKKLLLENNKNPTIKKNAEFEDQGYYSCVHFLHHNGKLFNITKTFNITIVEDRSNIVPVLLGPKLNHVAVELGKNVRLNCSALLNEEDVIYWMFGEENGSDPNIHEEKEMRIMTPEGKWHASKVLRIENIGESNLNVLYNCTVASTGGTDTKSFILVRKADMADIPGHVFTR
Procedure: (§1) Octet 96red instrument was used to determine affinities of IL18 proteins to BP or receptors. 5-10 ug/ml analyte proteins were used for loading on Sartorius tips (AHC or SA). […] 120-180 s loading, 200 s association and 800 s dissociation were used for kinetics. 3-7 data points were used to calculate affinities.

[9] = target: T4, human IL-18 binding protein (IL-18BP); experiment: Octet BLI
Procedure: as §1

[10] = target: T7, human IL-18R alpha/beta pair (IL-18Rab) (human, UniProt Q13478 19-329; O95256 20-356); experiment: Octet BLI
T7 construct: also called hu IL-18Rab
T7 sequence (looked up) 1: T6 sequence (looked up)
T7 sequence (looked up) 2: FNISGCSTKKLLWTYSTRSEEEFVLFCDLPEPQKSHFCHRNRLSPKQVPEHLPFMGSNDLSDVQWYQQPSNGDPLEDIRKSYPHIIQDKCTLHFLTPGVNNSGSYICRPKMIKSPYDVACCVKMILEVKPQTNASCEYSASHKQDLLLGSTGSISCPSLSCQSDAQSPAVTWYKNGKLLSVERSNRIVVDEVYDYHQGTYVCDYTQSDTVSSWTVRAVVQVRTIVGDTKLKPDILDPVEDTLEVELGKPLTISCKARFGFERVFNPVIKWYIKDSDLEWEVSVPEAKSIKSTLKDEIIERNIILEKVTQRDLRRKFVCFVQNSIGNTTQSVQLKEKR
Procedure: as §1

[11] = target: T8, IL-18 receptor (IL-18Rα and IL-18Rβ) (UniProt Q13478 19-541; O95256 20-599, limits assumed); experiment: cell-based or functional assay
T8 sequence (looked up) 1: T2 sequence (looked up) 1
T8 sequence (looked up) 2: T2 sequence (looked up) 2

[12] = target: T4, human IL-18 binding protein (IL-18BP); experiment: cell-based or functional assay; remark: listed apart in the source
[13] = target: T5, IL-18 receptors on HEK-Blue IL-18 …; experiment: cell-based or functional assay; remark: listed apart in the source
[14] = target: T4, human IL-18 binding protein (IL-18BP); experiment: Octet BLI; remark: listed apart in the source
Procedure: as §1
Select G3/K53-substitution containing IL-18 variants and select G3/K53/N91-substitution containing TL-18 variants were tested for activity in the HEK-blue activity assay and for binding affinity to IL-18BP. As shown in the data of Table 15 and Table 16 below, each variant had similar or better activity than WT IL-18, and retained substantial activity in the presence of IL-18BP.

[15] = target: T4, human IL-18 binding protein (IL-18BP); experiment: cell-based or functional assay; remark: listed apart in the source
[16] = target: T5, IL-18 receptors on HEK-Blue IL-18 …; experiment: cell-based or functional assay; remark: listed apart in the source

B1: IL-18 variant K53H, S55V (ligand)
chain: YFGKLESKLSVIRNLNDQVLFIDQGNRPLFEDMTDSDMRDNAPRTIFIISMYHDVQPRGMAVTISVKSEKISTLSSENKIISFKEMNPPDNIKDTKSDIIFFQRSVPGHDNKMQFESSSYEGYFLASEKERDLFKLILKKEDELGDRSIMFTVQNED
[1]
  HEK-blue EC50 (pM) + 300 nM BP: > 200 pM
  Ratio: 10.1
[2]
  HEK-blue EC50 (pM) - BP: 45.5 pM

B2: IL-18 variant G3E, E6A, K53Q, D54W, S55V, T63M, N91M, R104N (ligand)
chain: B1 chain with G3E, E6A, H53Q, D54W, T63M, N91M, R104N
[3]
  Ratio (-BP/+BP), DF-1000005: 0.97
  Ratio (-BP/+BP), DF-5000006: 1.03
  Ratio (-BP/+BP), DF-25000007: 0.99

B3: IL-18 variant G3V, E6K, K53A (ligand)
chain: B1 chain with G3V, E6K, H53A, V55S
notes: also called G3V, K53A, E6K
[4]
  HEK-Blue Activity Assay Ec50 (pM), +300 nM hu IL-18BP: 1.71 pM
[5]
  HEK-Blue Activity Assay Ec50 (pM), -hu IL-18BP: 0.02 pM
[6]
  Fold Change (BP/NO BP), 50 nM BP: 8.67 fold
  Fold Change (BP/NO BP), 300 nM BP: 74.8 fold
  HEK-Blue EC50 pM, +50 nM BP: 0.33 pM
  HEK-blue EC50 (pM) + 300 nM BP: 1.71 pM
[7]
  HEK-Blue EC50 pM, NO BP (50 nM BP run): 0.04 pM
  HEK-Blue EC50 pM, NO BP (300 nM BP run): 0.02 pM
[8]
  Kd: 52 nM
[9]
  Kd: 19 nM
[10]
  Kd: 0.27 nM

B4: IL-18 variant G3R, N91W, K53A (ligand)
chain: B1 chain with G3R, H53A, V55S, N91W
notes: also called G3R/K53A/N91W
[11]
  EC50 pM, IFN gamma expression in PBMCs: 49.8 pM
[12]
  HEK-Blue Ec50 (pM), +IL-18BP (50 nM): 4.22 pM
[13]
  HEK-Blue Ec50 (pM), -IL-18BP: 0.04 pM
[14]
  Kd: 1 nM
  koff: 0.000185 s⁻¹
  kon: 185000 M⁻¹ s⁻¹

B5: IL-18 variant G3T, E6K, K53A (ligand)
chain: B1 chain with G3T, E6K, H53A, V55S
notes: also called G3T, K53A, E6K
[4]
  HEK-Blue Activity Assay Ec50 (pM), +300 nM hu IL-18BP: 1.49 pM
[5]
  HEK-Blue Activity Assay Ec50 (pM), -hu IL-18BP: 0.04 pM
[6]
  Fold Change (BP/NO BP), 50 nM BP: 2.79 fold
  Fold Change (BP/NO BP), 300 nM BP: 35.2 fold
  HEK-Blue EC50 pM, +50 nM BP: 0.14 pM
  HEK-blue EC50 (pM) + 300 nM BP: 1.49 pM
[7]
  HEK-Blue EC50 pM, NO BP (50 nM BP run): 0.05 pM
  HEK-Blue EC50 pM, NO BP (300 nM BP run): 0.04 pM
[8]
  Kd: 10 nM
[9]
  Kd: 6 nM
[10]
  Kd: 0.32 nM

B6: IL-18 variant G3T, K53S (ligand)
chain: B1 chain with G3T, H53S, V55S
[11]
  EC50 pM, IFN gamma expression in PBMCs: 368 pM
[15]
  HEK-Blue Ec50 (pM), +IL-18BP (50 nM): 5.18 pM
[16]
  HEK-Blue Ec50 (pM), -IL-18BP: 2.5 pM
[14]
  Kd: 18 nM
  koff: 0.00474 s⁻¹
  kon: 263000 M⁻¹ s⁻¹

B7: IL-18 variant G3R, N91M, K53S (ligand)
chain: B1 chain with G3R, H53S, V55S, N91M
notes: also called G3R/K53S/N91M
[11]
  EC50 pM, IFN gamma expression in PBMCs: 73.9 pM
[12]
  HEK-Blue Ec50 (pM), +IL-18BP (50 nM): 2.16 pM
[13]
  HEK-Blue Ec50 (pM), -IL-18BP: 0.12 pM
[14]
  Kd: 3.3 nM
  koff: 0.000735 s⁻¹
  kon: 223000 M⁻¹ s⁻¹
